# Measurements reported in patent US20050272077.
# B1: GST-MKK3 (protein)
# chain: MSKPPAPNPTPPRNLDSRTFITIGDRMFEVEADDLVTISELGRGAYGVVEKVRHAQSGTIMAVKRIRATVNSQEQKRLLMDLDINMRTVDCFYTVTFYGALFREGDVWICMELMDTSLDKFYRKVLDKNMTIPEDILGEIAVSIVRALEHLHSKLSVIHRDVKPSNVLINKEGHVKMCDFGISGYLVDSVAKTMDAGCKPYMAPERINPELNQKGYNVKSDVWSLGITMIEMAILRFPYESWGTPFQQLKQVVEEPSPQLPADRFSPEFVDFTAQCLRKNPAERMSYLELMEHPFFTLHKTKKTDIAAFVKKILGEDS
# Columns and labels:
# [1] = biological target: GST-p38 MAP kinase (wild-type, TGY), Q16539
# [2] = biological target: mutated GST-p38 MAP kinase (AGF), Q16539
# Chain of mutated GST-p38 MAP kinase (AGF), Q16539 (Q16539 whole entry, looked up, change not shown): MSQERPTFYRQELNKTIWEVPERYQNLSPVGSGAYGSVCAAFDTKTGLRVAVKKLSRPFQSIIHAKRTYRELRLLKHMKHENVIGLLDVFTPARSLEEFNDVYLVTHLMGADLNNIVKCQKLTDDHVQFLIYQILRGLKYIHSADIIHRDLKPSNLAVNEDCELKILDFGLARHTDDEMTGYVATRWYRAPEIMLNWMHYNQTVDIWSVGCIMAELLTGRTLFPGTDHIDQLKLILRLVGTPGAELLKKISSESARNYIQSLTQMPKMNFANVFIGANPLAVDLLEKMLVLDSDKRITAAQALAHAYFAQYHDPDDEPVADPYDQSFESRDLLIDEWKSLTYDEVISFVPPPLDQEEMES
# Chain of GST-p38 MAP kinase (wild-type, TGY), Q16539 (Q16539 whole entry): as the sequence (Q16539 whole entry, looked up, change not shown) above
# Chain of GST-ERK2 [GST: P08515] (P08515 whole entry, looked up): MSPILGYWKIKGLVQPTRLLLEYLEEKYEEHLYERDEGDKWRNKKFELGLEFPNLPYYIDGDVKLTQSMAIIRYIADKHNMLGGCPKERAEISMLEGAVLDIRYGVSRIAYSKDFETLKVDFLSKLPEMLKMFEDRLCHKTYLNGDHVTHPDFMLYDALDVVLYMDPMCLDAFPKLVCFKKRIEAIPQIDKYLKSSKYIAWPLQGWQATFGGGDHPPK
# Chain of GST-JNK1, P45983 (P45983 other isoform, or with tags, fused parts or gaps): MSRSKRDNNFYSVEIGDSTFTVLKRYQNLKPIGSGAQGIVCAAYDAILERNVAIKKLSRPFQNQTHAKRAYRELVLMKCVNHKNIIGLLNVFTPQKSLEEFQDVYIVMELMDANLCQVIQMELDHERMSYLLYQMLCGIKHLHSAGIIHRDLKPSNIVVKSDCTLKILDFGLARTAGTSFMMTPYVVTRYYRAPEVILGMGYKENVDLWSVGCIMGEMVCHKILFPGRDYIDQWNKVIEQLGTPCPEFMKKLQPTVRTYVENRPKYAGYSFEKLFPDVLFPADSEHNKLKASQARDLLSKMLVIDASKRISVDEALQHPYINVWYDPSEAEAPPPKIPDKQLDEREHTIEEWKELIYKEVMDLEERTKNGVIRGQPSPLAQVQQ
protein,measurement,setting,value
B1,"phosphorylation of the substrate protein (in vitro kinase assay, [γ-32P]ATP, SDS-PAGE, autoradiography)",GST-ERK2 [GST: P08515],"MKK3 phosphorylated p38 MAP kinase, but not JNK1 or ERK2"
same,"phosphorylation of the substrate protein (in vitro kinase assay, [γ-32P]ATP, SDS-PAGE, autoradiography)","GST-JNK1, P45983","MKK3 phosphorylated p38 MAP kinase, but not JNK1 or ERK2"
same,"phosphorylation of the substrate protein (in vitro kinase assay, SDS-PAGE, autoradiography)",[1],Only phosphorylation of wild-type p38 was observed
same,"phosphorylation of the substrate protein (in vitro kinase assay, [γ-32P]ATP, SDS-PAGE, autoradiography)",[1],"MKK3 phosphorylated p38 MAP kinase, but not JNK1 or ERK2"
same,"phosphorylation of the substrate protein (in vitro kinase assay, SDS-PAGE, autoradiography)",[2],Only phosphorylation of wild-type p38 was observed
